From article PMC7530383

Biological target: actin (coated on the BLI biosensor)
Test: BLI; APS biosensor coated with actin; rTLP-1 in PBS pH 7.4 with 0.05% Tween 20 and 0.1% BSA; Octet RED, 25 °C; 300 s association, 120 s dissociation; n = 3

- Kd: 9.45 µM
Substance: Recombinant transgelin‐like protein 1 (rTLP‐1) from Mytilus coruscus (natural protein)
